Source: patent US20170360893A1 (Merck Sharp & Dohme, published 2017)
*1 amine or outer side, *2 acyl side, *3 side chain or, on linkers, in order; H or OH if unused. Where no end group is shown, it is not given here. Side-chain parts run from the residue outwards. [ ]: non-standard residue; d: D form. The star is where a group is joined. γGlu = O=C(O)[C@H](CCC(=O)[*:2])N[*:1]; Palmitoyl = CCCCCCCCCCCCCCCC(=O)*; Ac4c = NC1(C(=O)O)CCC1

Tests used:
human glucagon receptor = human glucagon receptor (human, UniProt P47871 26-477); assay: cell-based or functional assay
Sequence of human glucagon receptor (P47871 26-477): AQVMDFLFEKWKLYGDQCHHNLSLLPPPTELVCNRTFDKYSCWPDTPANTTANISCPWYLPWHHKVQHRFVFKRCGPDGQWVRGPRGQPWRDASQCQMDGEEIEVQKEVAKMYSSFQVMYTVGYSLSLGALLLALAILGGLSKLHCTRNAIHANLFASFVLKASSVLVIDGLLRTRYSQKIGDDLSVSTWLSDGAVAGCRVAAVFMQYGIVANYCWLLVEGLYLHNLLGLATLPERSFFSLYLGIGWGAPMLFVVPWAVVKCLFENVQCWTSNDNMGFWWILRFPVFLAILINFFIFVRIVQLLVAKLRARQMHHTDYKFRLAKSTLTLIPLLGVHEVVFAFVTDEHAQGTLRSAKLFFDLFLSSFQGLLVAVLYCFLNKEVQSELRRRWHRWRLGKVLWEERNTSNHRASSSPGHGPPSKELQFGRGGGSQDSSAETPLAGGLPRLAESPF

[1] = molecular target: human glucagon-like peptide 1 receptor (human, UniProt P43220 24-463); assay: cell-based or functional assay

Binder | GCGR EC50 (nM) human; cAMP production (HitHunter cAMP XS) in cells expressing human GCGR, 20% human serum (human glucagon receptor) | GLPR1 EC50 (nM) human; cAMP production (HitHunter cAMP XS) in cells expressing human GLP-1R, 20% human serum [1]
H[Ac4c]QGTFTSDK([γGlu-γGlu-Palmitoyl])SKYLDERAAQDFVQWLLDT-NH2 (N-terminus assumed; SMILES CCCCCCCCCCCCCCCC(=O)N[C@@H](CCC(=O)N[C@@H](CCC(=O)NCCCC[C@H](NC(=O)[C@H](CC(=O)O)NC(=O)[C@H](CO)NC(=O)[C@@H](NC(=O)[C@H](Cc1ccccc1)NC(=O)[C@@H](NC(=O)CNC(=O)[C@H](CCC(N)=O)NC(=O)C1(NC(=O)[C@@H](N)Cc2c[nH]cn2)CCC1)[C@@H](C)O)[C@@H](C)O)C(=O)N[C@@H](CO)C(=O)N[C@@H](CCCCN)C(=O)N[C@@H](Cc1ccc(O)cc1)C(=O)N[C@@H](CC(C)C)C(=O)N[C@@H](CC(=O)O)C(=O)N[C@@H](CCC(=O)O)C(=O)N[C@@H](CCCNC(=N)N)C(=O)N[C@@H](C)C(=O)N[C@@H](C)C(=O)N[C@@H](CCC(N)=O)C(=O)N[C@@H](CC(=O)O)C(=O)N[C@@H](Cc1ccccc1)C(=O)N[C@H](C(=O)N[C@@H](CCC(N)=O)C(=O)N[C@@H](Cc1c[nH]c2ccccc12)C(=O)N[C@@H](CC(C)C)C(=O)N[C@@H](CC(C)C)C(=O)N[C@@H](CC(=O)O)C(=O)N[C@H](C(N)=O)[C@@H](C)O)C(C)C)C(=O)O)C(=O)O) [Co-agonist Peptide 13] | 0.06 nM | 0.05 nM
HXQGTFTSDXSKYLDARAAQDFVQWLLDT (X2 = D-Ser; X10 = para-aminomethyl phenylalanine (pAF) conjugated to γEγEC16; C-terminal amide) [Co-agonist Peptide 12] | 0.05 nM | 0.05 nM
HXQGTFTSDKSKYLDERAAQDFVQWLLDT (X2 = D-Ser; K10 conjugated to γEγEC16; C-terminal amide) [Comparator Co-agonist Peptide 6] | 0.009 nM | 0.007 nM
HXQGTXTSDKSKYLDERAAQDFVQWLLDT (not fully specified; X2 = D-Ser; X6 = threo-β-Phenylserine (tβP); K10 conjugated to γEγEC16; C-terminal amide) [Co-agonist Peptide 14] | 1.04 nM | 1.02 nM
H[dS]QGTFTSDK([γGlu-γGlu-Palmitoyl])SKYLDVRRAQDFVQWLLDT-NH2 (not fully specified; printed as HsQGTFTSDK(γEγEC16)SKYLDVRRAQDFVQWLLDT-NH2) [Co-agonist Peptide 2] | 0.041 nM | 0.16 nM
H[dS]QGTFTSDK([γGlu-γGlu-Palmitoyl])SKYLEARAAQDFVQWLLDT-NH2 (N-terminus assumed; SMILES CCCCCCCCCCCCCCCC(=O)N[C@@H](CCC(=O)N[C@@H](CCC(=O)NCCCC[C@H](NC(=O)[C@H](CC(=O)O)NC(=O)[C@H](CO)NC(=O)[C@@H](NC(=O)[C@H](Cc1ccccc1)NC(=O)[C@@H](NC(=O)CNC(=O)[C@H](CCC(N)=O)NC(=O)[C@@H](CO)NC(=O)[C@@H](N)Cc1c[nH]cn1)[C@@H](C)O)[C@@H](C)O)C(=O)N[C@@H](CO)C(=O)N[C@@H](CCCCN)C(=O)N[C@@H](Cc1ccc(O)cc1)C(=O)N[C@@H](CC(C)C)C(=O)N[C@@H](CCC(=O)O)C(=O)N[C@@H](C)C(=O)N[C@@H](CCCNC(=N)N)C(=O)N[C@@H](C)C(=O)N[C@@H](C)C(=O)N[C@@H](CCC(N)=O)C(=O)N[C@@H](CC(=O)O)C(=O)N[C@@H](Cc1ccccc1)C(=O)N[C@H](C(=O)N[C@@H](CCC(N)=O)C(=O)N[C@@H](Cc1c[nH]c2ccccc12)C(=O)N[C@@H](CC(C)C)C(=O)N[C@@H](CC(C)C)C(=O)N[C@@H](CC(=O)O)C(=O)N[C@H](C(N)=O)[C@@H](C)O)C(C)C)C(=O)O)C(=O)O) [Co-agonist Peptide 8] | 0.02 nM | 0.02 nM
H[dS]QGTFTSDK([γGlu-γGlu-Palmitoyl])SLYLDERAAQDFVQWLLDT-NH2 (N-terminus assumed; SMILES CCCCCCCCCCCCCCCC(=O)N[C@@H](CCC(=O)N[C@@H](CCC(=O)NCCCC[C@H](NC(=O)[C@H](CC(=O)O)NC(=O)[C@H](CO)NC(=O)[C@@H](NC(=O)[C@H](Cc1ccccc1)NC(=O)[C@@H](NC(=O)CNC(=O)[C@H](CCC(N)=O)NC(=O)[C@@H](CO)NC(=O)[C@@H](N)Cc1c[nH]cn1)[C@@H](C)O)[C@@H](C)O)C(=O)N[C@@H](CO)C(=O)N[C@@H](CC(C)C)C(=O)N[C@@H](Cc1ccc(O)cc1)C(=O)N[C@@H](CC(C)C)C(=O)N[C@@H](CC(=O)O)C(=O)N[C@@H](CCC(=O)O)C(=O)N[C@@H](CCCNC(=N)N)C(=O)N[C@@H](C)C(=O)N[C@@H](C)C(=O)N[C@@H](CCC(N)=O)C(=O)N[C@@H](CC(=O)O)C(=O)N[C@@H](Cc1ccccc1)C(=O)N[C@H](C(=O)N[C@@H](CCC(N)=O)C(=O)N[C@@H](Cc1c[nH]c2ccccc12)C(=O)N[C@@H](CC(C)C)C(=O)N[C@@H](CC(C)C)C(=O)N[C@@H](CC(=O)O)C(=O)N[C@H](C(N)=O)[C@@H](C)O)C(C)C)C(=O)O)C(=O)O) [Co-agonist Peptide 11] | 0.06 nM | 0.06 nM
HXQGTFTSDKSKYLDERAAQDFVQWLXDT (X2 = D-Ser; K10 conjugated to γEγEC16; X27 = methionine sulfone; C-terminal amide) [Co-agonist Peptide 10] | 0.02 nM | 0.02 nM
H[dS]QGTFTSDK([γGlu-Palmitoyl])SKYLDARAAQDFVQWLLDT-NH2 (N-terminus assumed; SMILES CCCCCCCCCCCCCCCC(=O)N[C@@H](CCC(=O)NCCCC[C@H](NC(=O)[C@H](CC(=O)O)NC(=O)[C@H](CO)NC(=O)[C@@H](NC(=O)[C@H](Cc1ccccc1)NC(=O)[C@@H](NC(=O)CNC(=O)[C@H](CCC(N)=O)NC(=O)[C@@H](CO)NC(=O)[C@@H](N)Cc1c[nH]cn1)[C@@H](C)O)[C@@H](C)O)C(=O)N[C@@H](CO)C(=O)N[C@@H](CCCCN)C(=O)N[C@@H](Cc1ccc(O)cc1)C(=O)N[C@@H](CC(C)C)C(=O)N[C@@H](CC(=O)O)C(=O)N[C@@H](C)C(=O)N[C@@H](CCCNC(=N)N)C(=O)N[C@@H](C)C(=O)N[C@@H](C)C(=O)N[C@@H](CCC(N)=O)C(=O)N[C@@H](CC(=O)O)C(=O)N[C@@H](Cc1ccccc1)C(=O)N[C@H](C(=O)N[C@@H](CCC(N)=O)C(=O)N[C@@H](Cc1c[nH]c2ccccc12)C(=O)N[C@@H](CC(C)C)C(=O)N[C@@H](CC(C)C)C(=O)N[C@@H](CC(=O)O)C(=O)N[C@H](C(N)=O)[C@@H](C)O)C(C)C)C(=O)O) [Co-agonist Peptide 1] | 0.042 nM | 0.048 nM
H[dS]QGTFTSDK([γGlu-γGlu-Palmitoyl])SKYLDARAAQDFVQWLLDT-NH2 (N-terminus assumed; SMILES CCCCCCCCCCCCCCCC(=O)N[C@@H](CCC(=O)N[C@@H](CCC(=O)NCCCC[C@H](NC(=O)[C@H](CC(=O)O)NC(=O)[C@H](CO)NC(=O)[C@@H](NC(=O)[C@H](Cc1ccccc1)NC(=O)[C@@H](NC(=O)CNC(=O)[C@H](CCC(N)=O)NC(=O)[C@@H](CO)NC(=O)[C@@H](N)Cc1c[nH]cn1)[C@@H](C)O)[C@@H](C)O)C(=O)N[C@@H](CO)C(=O)N[C@@H](CCCCN)C(=O)N[C@@H](Cc1ccc(O)cc1)C(=O)N[C@@H](CC(C)C)C(=O)N[C@@H](CC(=O)O)C(=O)N[C@@H](C)C(=O)N[C@@H](CCCNC(=N)N)C(=O)N[C@@H](C)C(=O)N[C@@H](C)C(=O)N[C@@H](CCC(N)=O)C(=O)N[C@@H](CC(=O)O)C(=O)N[C@@H](Cc1ccccc1)C(=O)N[C@H](C(=O)N[C@@H](CCC(N)=O)C(=O)N[C@@H](Cc1c[nH]c2ccccc12)C(=O)N[C@@H](CC(C)C)C(=O)N[C@@H](CC(C)C)C(=O)N[C@@H](CC(=O)O)C(=O)N[C@H](C(N)=O)[C@@H](C)O)C(C)C)C(=O)O)C(=O)O) [Co-agonist Peptide 5] | 0.03 nM | 0.033 nM
H[dS]QGTFTSDK([γGlu-γGlu-Palmitoyl])SKYLDVRAAQDFVQWLLDT-NH2 (N-terminus assumed; SMILES CCCCCCCCCCCCCCCC(=O)N[C@@H](CCC(=O)N[C@@H](CCC(=O)NCCCC[C@H](NC(=O)[C@H](CC(=O)O)NC(=O)[C@H](CO)NC(=O)[C@@H](NC(=O)[C@H](Cc1ccccc1)NC(=O)[C@@H](NC(=O)CNC(=O)[C@H](CCC(N)=O)NC(=O)[C@@H](CO)NC(=O)[C@@H](N)Cc1c[nH]cn1)[C@@H](C)O)[C@@H](C)O)C(=O)N[C@@H](CO)C(=O)N[C@@H](CCCCN)C(=O)N[C@@H](Cc1ccc(O)cc1)C(=O)N[C@@H](CC(C)C)C(=O)N[C@@H](CC(=O)O)C(=O)N[C@H](C(=O)N[C@@H](CCCNC(=N)N)C(=O)N[C@@H](C)C(=O)N[C@@H](C)C(=O)N[C@@H](CCC(N)=O)C(=O)N[C@@H](CC(=O)O)C(=O)N[C@@H](Cc1ccccc1)C(=O)N[C@H](C(=O)N[C@@H](CCC(N)=O)C(=O)N[C@@H](Cc1c[nH]c2ccccc12)C(=O)N[C@@H](CC(C)C)C(=O)N[C@@H](CC(C)C)C(=O)N[C@@H](CC(=O)O)C(=O)N[C@H](C(N)=O)[C@@H](C)O)C(C)C)C(C)C)C(=O)O)C(=O)O) [Co-agonist Peptide 3] | 0.08 nM | 0.13 nM
Ac-HAQGTFTSDK([γGlu-γGlu-C16])SKYLDERAAQDFVQWLLDT-NH2 [Co-agonist Peptide 7] | 0.07 nM | 0.07 nM
HXQGTXTSDKSKYLDERAAQDFVQWLLDT (X2 = D-Ser; X6 = p-fluoro phenylalanine (pFF); K10 conjugated to γEγEC16; C-terminal amide) [Co-agonist Peptide 9] | 0.05 nM | 0.06 nM
